Blank lines part the entries; values can stand above or below the substance they belong to.
Tests used:
[1] = molecular target: GST fusion of the VGLUT1 C-terminus lacking both PP domains (rat); experiment: pull-down; GST fusions of the VGLUT1 C-terminus on glutathione sepharose beads, incubated with detergent-solubilized (2% TX-100) rat brain extract, RT 60 min; bound proteins by immunoblot, band intensity normalised to VG1 (Figs. 3C,D and 4B)
[2] = molecular target: GST fusion of the VGLUT1 C-terminus lacking the second PP domain (rat); experiment: as above
[3] = molecular target: GST fusion of the VGLUT1 C-terminus lacking the first PP domain (rat); experiment: as above
[4] = molecular target: GST fusion of the VGLUT1 C-terminus lacking both PP domains (rat); experiment: pull-down; GST fusions of the VGLUT1 C-terminus on glutathione sepharose beads, incubated with extracts of COS7 cells transfected with myc-Lyn (2% TX-100); detected with antibody to myc, band intensity normalised to VG1
[5] = molecular target: GST fusion of the VGLUT1 C-terminus lacking the second PP domain (rat); experiment: as above
[6] = molecular target: GST fusion of the VGLUT1 C-terminus lacking the first PP domain (rat); experiment: as above
[7] = molecular target: GST fusion of the VGLUT1 C-terminus, ΔWW/PAXA (rat); experiment: pull-down; GST fusions of the VGLUT1 C-terminus on glutathione sepharose beads, incubated with detergent-solubilized (2% TX-100) rat brain extract, RT 60 min; bound proteins by immunoblot, band intensity normalised to VG1 (Figs. 3C,D and 4B)
[8] = molecular target: GST fusion of the VGLUT1 C-terminus, ΔWW/PAXY (rat); experiment: as above
[9] = molecular target: GST fusion of the VGLUT1 C-terminus, ΔSH3/1,2,3 (rat); experiment: as above
[10] = molecular target: GST fusion of the VGLUT1 C-terminus, SS/DD (rat) (UniProt Q62634); experiment: pull-down; 400 µg GST fusions of the VGLUT1 C-terminus on glutathione sepharose beads, rat brain extract in 100 mM Tris-HCl pH 7.5, 150 mM NaCl, 1 mM EGTA, 1% TX-100, 4°C 2 h; immunoblot (Fig. 6)
[11] = molecular target: GST fusion of the VGLUT1 C-terminus, SS/AA (rat) (UniProt Q62634); experiment: as above
[12] = molecular target: GST fusion of the SH3 domain of sorting nexin 9 (Panomics) (human) (UniProt Q9Y5X1); experiment: pull-down; GST fusions of SH3 or WW domains on glutathione sepharose beads, incubated with detergent-solubilized (2% TX-100) rat brain extract, RT 60 min; bound VGLUT1 by immunoblot, band intensity normalised to lysate
Sequence of GST fusion of the SH3 domain of sorting nexin 9 (Panomics) (human) (Q9Y5X1 1-62): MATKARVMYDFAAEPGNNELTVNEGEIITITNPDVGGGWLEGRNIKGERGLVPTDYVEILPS

Sequence of Nedd4 from rat brain extract (Q62940 whole entry): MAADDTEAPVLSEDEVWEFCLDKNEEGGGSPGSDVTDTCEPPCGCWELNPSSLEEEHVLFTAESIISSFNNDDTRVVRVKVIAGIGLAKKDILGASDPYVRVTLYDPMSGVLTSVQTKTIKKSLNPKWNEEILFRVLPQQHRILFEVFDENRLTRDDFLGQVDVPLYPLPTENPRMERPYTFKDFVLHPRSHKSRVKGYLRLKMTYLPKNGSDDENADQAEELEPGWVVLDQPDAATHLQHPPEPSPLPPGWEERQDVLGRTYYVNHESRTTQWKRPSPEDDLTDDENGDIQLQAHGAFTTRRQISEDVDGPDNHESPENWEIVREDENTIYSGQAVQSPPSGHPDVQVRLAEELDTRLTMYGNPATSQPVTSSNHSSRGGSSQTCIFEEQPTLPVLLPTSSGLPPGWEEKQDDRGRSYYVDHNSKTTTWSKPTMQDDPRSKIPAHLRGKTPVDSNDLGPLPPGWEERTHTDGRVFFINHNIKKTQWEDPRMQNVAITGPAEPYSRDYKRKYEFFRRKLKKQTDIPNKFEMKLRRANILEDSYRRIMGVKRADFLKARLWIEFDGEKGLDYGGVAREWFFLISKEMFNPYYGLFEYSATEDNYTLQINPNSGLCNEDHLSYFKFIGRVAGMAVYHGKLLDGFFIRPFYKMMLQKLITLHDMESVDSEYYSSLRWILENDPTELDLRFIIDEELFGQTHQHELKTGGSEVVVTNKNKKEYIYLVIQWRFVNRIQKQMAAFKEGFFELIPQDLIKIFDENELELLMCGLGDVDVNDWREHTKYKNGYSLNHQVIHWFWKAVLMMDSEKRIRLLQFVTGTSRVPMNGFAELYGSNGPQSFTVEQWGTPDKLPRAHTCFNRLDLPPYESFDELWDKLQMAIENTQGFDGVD
Sequence of myc-tagged Lyn (P25911 whole entry): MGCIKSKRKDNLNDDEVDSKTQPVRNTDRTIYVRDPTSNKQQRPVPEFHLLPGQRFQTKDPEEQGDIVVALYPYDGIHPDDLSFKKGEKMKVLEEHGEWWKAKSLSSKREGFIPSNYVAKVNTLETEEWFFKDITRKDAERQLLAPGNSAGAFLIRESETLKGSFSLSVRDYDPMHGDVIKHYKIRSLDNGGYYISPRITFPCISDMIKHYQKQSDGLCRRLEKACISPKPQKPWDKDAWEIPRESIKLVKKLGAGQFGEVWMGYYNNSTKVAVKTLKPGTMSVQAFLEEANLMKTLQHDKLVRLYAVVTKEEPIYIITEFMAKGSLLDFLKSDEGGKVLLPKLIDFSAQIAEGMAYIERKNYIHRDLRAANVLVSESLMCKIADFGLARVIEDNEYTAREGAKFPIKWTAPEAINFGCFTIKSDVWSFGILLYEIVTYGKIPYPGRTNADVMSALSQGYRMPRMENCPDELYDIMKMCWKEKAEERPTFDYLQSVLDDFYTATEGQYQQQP
Sequence of clathrin adaptor protein AP-2 from rat brain extract (P18484 whole entry, looked up): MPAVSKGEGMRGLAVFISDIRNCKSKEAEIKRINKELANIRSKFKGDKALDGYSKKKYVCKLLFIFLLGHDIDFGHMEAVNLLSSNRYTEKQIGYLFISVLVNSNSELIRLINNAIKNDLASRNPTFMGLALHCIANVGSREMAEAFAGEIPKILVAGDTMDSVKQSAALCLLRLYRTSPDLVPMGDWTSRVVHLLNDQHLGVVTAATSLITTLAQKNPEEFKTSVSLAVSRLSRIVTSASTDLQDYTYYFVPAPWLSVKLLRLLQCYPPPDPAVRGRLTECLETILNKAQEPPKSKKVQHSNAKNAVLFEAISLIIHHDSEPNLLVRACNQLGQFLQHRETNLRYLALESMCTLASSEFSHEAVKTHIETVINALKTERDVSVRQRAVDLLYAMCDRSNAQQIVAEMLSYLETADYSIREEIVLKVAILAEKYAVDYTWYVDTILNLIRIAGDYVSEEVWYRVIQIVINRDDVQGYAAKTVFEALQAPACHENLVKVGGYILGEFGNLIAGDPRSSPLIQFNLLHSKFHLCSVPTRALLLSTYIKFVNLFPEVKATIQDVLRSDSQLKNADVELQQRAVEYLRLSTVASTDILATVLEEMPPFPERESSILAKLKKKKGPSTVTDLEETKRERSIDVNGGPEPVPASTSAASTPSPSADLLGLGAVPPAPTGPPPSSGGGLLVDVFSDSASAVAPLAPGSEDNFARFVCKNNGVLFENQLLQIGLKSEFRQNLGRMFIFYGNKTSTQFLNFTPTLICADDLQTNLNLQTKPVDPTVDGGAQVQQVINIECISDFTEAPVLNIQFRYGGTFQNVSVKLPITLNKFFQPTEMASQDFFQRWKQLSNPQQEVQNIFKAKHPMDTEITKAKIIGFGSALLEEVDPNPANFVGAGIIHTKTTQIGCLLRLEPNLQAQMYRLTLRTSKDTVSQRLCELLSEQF

band intensity normalised to VG1 [1]: 0.225 a.u.
band intensity normalised to VG1 [2]: 0.062 a.u.
band intensity normalised to VG1 [3]: 2.24 a.u.
Substance: ponsin/c-Cbl interacting protein CAP from rat brain extract (from UniProt P84109 1-35) (natural protein)

band intensity normalised to VG1 [4]: 0.0368 a.u.
band intensity normalised to VG1 [5]: 0.0282 a.u.
band intensity normalised to VG1 [6]: 1.12 a.u.
Substance: myc-tagged Lyn (from UniProt P25911 1-512) (enzyme)

band intensity normalised to VG1 [1]: 0.0821 a.u.
band intensity normalised to VG1 [2]: 0.664 a.u.
band intensity normalised to VG1 [3]: 0.0459 a.u.
Substance: Nedd4 from rat brain extract (from UniProt Q62940 1-887) (enzyme)

band intensity normalised to VG1 [7]: 0.0669 a.u.
band intensity normalised to VG1 [2]: 0.822 a.u.
band intensity normalised to VG1 [8]: 0.119 a.u.
band intensity normalised to VG1 [9]: 0.99 a.u.
Substance: Atrophin Interacting Protein AIP4/Itch from rat brain extract (enzyme)

band intensity normalised to VG1 [3]: 1.11 a.u.
Substance: Nck from rat brain extract (natural protein)

band intensity (a.u.) [10]: 1.76 a.u.
band intensity (a.u.) [11]: 0.674 a.u.
Substance: clathrin adaptor protein AP-2 from rat brain extract (from UniProt P18484 1-938) (complex)

band intensity normalised to lysate [12]: 0.111 a.u.
Substance: VGLUT1 from rat brain extract (from UniProt Q62634 1-560) (natural protein)
